Experimental data as given in patent publication US20230092081A1.

Target: S. ruber SSB cdel 111 C-terminal deletion mutant lacking the C-terminal 111 residues of the wildtype SSB (Salinibacter ruber)
Experiment: size exclusion chromatography, 150 mM NaCl, self-association

oligomer mass as multiple of the monomer mass (times monomer size): 3.8
Substance: S. ruber SSB cdel 111 C-terminal deletion mutant lacking the C-terminal 111 residues of the wildtype SSB
